For the data set, the target named is T1, alpha-fetoprotein (AFP) (UniProt P02771 19-609).
T1 sequence: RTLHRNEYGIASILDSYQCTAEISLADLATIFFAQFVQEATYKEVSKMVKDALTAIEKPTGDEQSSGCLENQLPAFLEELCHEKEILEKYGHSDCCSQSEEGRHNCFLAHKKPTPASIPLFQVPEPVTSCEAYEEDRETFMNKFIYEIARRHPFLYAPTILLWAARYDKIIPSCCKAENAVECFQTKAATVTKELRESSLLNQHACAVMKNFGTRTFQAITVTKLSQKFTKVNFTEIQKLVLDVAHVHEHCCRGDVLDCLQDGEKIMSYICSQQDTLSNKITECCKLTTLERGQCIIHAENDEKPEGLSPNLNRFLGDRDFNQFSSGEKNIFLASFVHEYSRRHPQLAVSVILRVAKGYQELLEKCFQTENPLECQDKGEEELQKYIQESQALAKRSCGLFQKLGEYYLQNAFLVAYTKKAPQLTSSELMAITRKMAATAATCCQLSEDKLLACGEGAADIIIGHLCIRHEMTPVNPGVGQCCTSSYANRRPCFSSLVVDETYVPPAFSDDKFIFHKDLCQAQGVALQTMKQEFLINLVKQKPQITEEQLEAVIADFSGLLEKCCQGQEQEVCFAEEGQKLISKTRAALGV
The data set is described as follows: electrochemical aptasensor (DPV); signal-on; log-linear 1-300 ng/mL, LOD 0.05 ng/mL (not a Kd); Optimized: pH 7, 4 uM aptamer, 40 min aptamer and 30 min AFP incubation; PBS (0.01 M) listed as reagent; temperature not stated for binding. Conditions: protein: commercial; label: 3'-methylene blue.

B1: AFP aptamer (ssDNA)
DNA: GTGACGCTCCTAACGCTGACTCAGGTGCAGTTCTCGACTCGGTCTTGATGTGGGTCCTGTCCGTCCGAACCAATC
modifications: 5'-SH; 3'-methylene blue
Regarding B1, the binding result is “binds”.

These data come from PMC11678932, “A Signal-On Microelectrode Electrochemical Aptamer Sensor Based on AuNPs–MXene for Alpha-Fetoprotein Determination”.
